Laboratory results taken from paper PMC9994480, “Infancy‐onset diabetes caused by de‐regulated AMPylation of the human endoplasmic reticulum chaperone BiP” (EMBO Molecular Medicine, 2023).

Target: the molecule itself
Assay: SEC; analytical SEC, Agilent Bio SEC-3 HPLC column, TNT buffer (25 mM Tris pH 8.0, 150 mM NaCl, 1 mM TCEP), 25°C; proteins diluted to a range of concentrations (Fig 3B) and incubated at least 1 h at room temperature; 0.3 ml/min

Protein	stoichiometry N
wild-type FICD, structured luminal domain (residues 104–445) (enzyme, human, UniProt Q9BVA6 104-445, looked up, human FICD, structured region, residues 104-445; The methods say His6-SUMO fusion (cleaved by Ulp1) or GST fusion (cleaved by TEV) without telling which for which protein; Purification as in Perera et al, 2019, 2021; also called WT; FICD^WT; not shown: His6-SUMO (or GST)) LEARAALNQALEMKRQGKREKAQKLFMHALKMDPDFVDALTEFGIFSEEDKDIIQADYLYTRALTISPYHEKALVNRDRTLPLVEEIDQRYFSIIDSKVKKVMSIPKGNSALRRVMEETYYHHIYHTVAIEGNTLTLSEIRHILETRYAVPGKSLEEQNEVIGMHAAMKYINTTLVSRIGSVTISDVLEIHRRVLGYVDPVEAGRFRTTQVLVGHHIPPHPQDVEKQMQEFVQWLNSEEAMNLHPVEFAALAHYKLVYIHPFIDGNGRTSRLLMNLILMQAGYPPITIRKEQRSDYYHVLEAANEGDVRPFIRFIAKCTETTLDTLLFATTEYSVALPEAQP	2
FICD^R371S, structured luminal domain (residues 104–445) (enzyme, human, UniProt Q9BVA6 104-445, looked up, human FICD, structured region, residues 104-445, with the patients' variant p.(Arg371Ser); Variant found homozygous in patients (NM_007076.2:c.1113G>C); also called Arg371Ser mutant FICD; FICD p.(Arg371Ser); not shown: His6-SUMO (or GST)) LEARAALNQALEMKRQGKREKAQKLFMHALKMDPDFVDALTEFGIFSEEDKDIIQADYLYTRALTISPYHEKALVNRDRTLPLVEEIDQRYFSIIDSKVKKVMSIPKGNSALRRVMEETYYHHIYHTVAIEGNTLTLSEIRHILETRYAVPGKSLEEQNEVIGMHAAMKYINTTLVSRIGSVTISDVLEIHRRVLGYVDPVEAGRFRTTQVLVGHHIPPHPQDVEKQMQEFVQWLNSEEAMNLHPVEFAALAHYKLVYIHPFIDGNGSTSRLLMNLILMQAGYPPITIRKEQRSDYYHVLEAANEGDVRPFIRFIAKCTETTLDTLLFATTEYSVALPEAQP	2
